Literature values as cited in paper PMC5852440.
pKd: −log10 of the molar value.

Target: EphB4 (Homo sapiens) (UniProt P54760)
Chain of UniProt P54760 (P54760 16-539): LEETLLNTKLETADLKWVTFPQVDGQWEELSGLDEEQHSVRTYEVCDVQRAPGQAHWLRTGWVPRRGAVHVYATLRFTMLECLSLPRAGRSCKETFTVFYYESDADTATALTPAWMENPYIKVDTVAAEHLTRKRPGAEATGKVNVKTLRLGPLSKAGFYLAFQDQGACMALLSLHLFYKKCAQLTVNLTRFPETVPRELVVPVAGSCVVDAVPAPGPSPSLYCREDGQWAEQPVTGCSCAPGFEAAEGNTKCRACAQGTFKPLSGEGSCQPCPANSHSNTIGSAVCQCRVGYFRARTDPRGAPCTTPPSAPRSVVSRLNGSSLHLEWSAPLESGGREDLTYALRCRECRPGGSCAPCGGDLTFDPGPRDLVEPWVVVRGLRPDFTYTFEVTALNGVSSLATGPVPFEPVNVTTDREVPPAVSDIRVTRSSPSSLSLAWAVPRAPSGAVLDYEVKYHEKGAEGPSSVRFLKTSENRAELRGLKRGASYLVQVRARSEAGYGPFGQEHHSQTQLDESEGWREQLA

pKd: 6.06
Substance: Epo (from UniProt P01588)
